Results from the Human Domainome abundance scans (Beltran et al. 2025).
± gives the uncertainty stated by the source.

B1: POU domain, class 3, transcription factor 4, residues 280 to 335; numbered along this chain, P49335 (parent)
chain: KKRTSIEVSVKGVLETHFLKCPKPAAQEISSLADSLQLEKEVVRVWFCNRRQKEKR

Variants of: B1
Test: abundance fitness (aPCA) (normalised: wild type 0, dead -1); higher = more abundant; growth selection in yeast, the domain comes from the species named
Conditions: Homo sapiens

Variant	abundance fitness
KKRTSIEVSVKGVLETHFLKCPKPAAQEISSQADSLQLEKEVVRVWFCNRRQKEKR	-0.916 ± 0.35
KKRTSIEVSVKGVLETHFLKCPKPAAQEISSAADSLQLEKEVVRVWFCNRRQKEKR	-0.247 ± 0.21
KKRTSIEVSVKGVLETHFLKCPKPAAQEISNLADSLQLEKEVVRVWFCNRRQKEKR	0.182 ± 0.22
KKRTSIEVSVKGVLETHFLKCPKPAAQEISSLATSLQLEKEVVRVWFCNRRQKEKR	-0.472 ± 0.19
KKRTSIEVSVKGVLETHFLKCPKPAAQEISSLAHSLQLEKEVVRVWFCNRRQKEKR	0.069 ± 0.2
KKRTSIEVSVKGVLCTHFLKCPKPAAQEISSLADSLQLEKEVVRVWFCNRRQKEKR	-0.947 ± 0.3
KKRTSIEVSVKGVLETHFLKCPKPAAQEISSLADSLQLEKEVVRVWFCNRYQKEKR	-0.193 ± 0.47
KKRTSIEVSVKGVLETHFLKCPKPAAQEISSLADSLQLEKEVVRVWFCNRTQKEKR	-0.848 ± 0.33
KKRTSIEVSVKGVLETHFLRCPKPAAQEISSLADSLQLEKEVVRVWFCNRRQKEKR	-0.386 ± 0.12
KKRTSIENSVKGVLETHFLKCPKPAAQEISSLADSLQLEKEVVRVWFCNRRQKEKR	1.06 ± 0.44
KKRTSIEGSVKGVLETHFLKCPKPAAQEISSLADSLQLEKEVVRVWFCNRRQKEKR	0.49 ± 0.11
KKRTSIEQSVKGVLETHFLKCPKPAAQEISSLADSLQLEKEVVRVWFCNRRQKEKR	0.405 ± 0.2
KKRTSIEVSVKGVLETHFLKCPKPAAQEIRSLADSLQLEKEVVRVWFCNRRQKEKR	-0.185 ± 0.14
KKRTSIEVSVKGVLETPFLKCPKPAAQEISSLADSLQLEKEVVRVWFCNRRQKEKR	-0.957 ± 0.32
KKRTSIEVSVKGVLETAFLKCPKPAAQEISSLADSLQLEKEVVRVWFCNRRQKEKR	0.085 ± 0.13
KKRTSIEVSVKGVLETVFLKCPKPAAQEISSLADSLQLEKEVVRVWFCNRRQKEKR	-0.017 ± 0.12
KKRTSIEVSVKGVLETHFLKCPKPAAQEISSLADSLQSEKEVVRVWFCNRRQKEKR	-0.815 ± 0.18
KKRTSIEVSVKGVLETHFLKCPKPAAQEISSLADSLQGEKEVVRVWFCNRRQKEKR	-0.679 ± 0.14
KKRTSIEVSVKGVLETHFLKTPKPAAQEISSLADSLQLEKEVVRVWFCNRRQKEKR	-0.336 ± 0.17
KKRTSIEVSVKGVLETHFLKPPKPAAQEISSLADSLQLEKEVVRVWFCNRRQKEKR	-0.483 ± 0.21
KKRTSIEVSVKGVLETHFLKCPKPWAQEISSLADSLQLEKEVVRVWFCNRRQKEKR	-0.764 ± 0.17
KKRTSIEVSVKGVLETHFLKCPKPVAQEISSLADSLQLEKEVVRVWFCNRRQKEKR	-0.476 ± 0.14
KKRTSIEVSVKGVLETHFLKCPKPACQEISSLADSLQLEKEVVRVWFCNRRQKEKR	-0.211 ± 0.18
KKRTSIEVSVKGVLETHFLKCPKPAPQEISSLADSLQLEKEVVRVWFCNRRQKEKR	0.149 ± 0.19

Variant	abundance fitness
KKRTSIEVSVKGVLETHFLKCPKPAGQEISSLADSLQLEKEVVRVWFCNRRQKEKR	-0.37 ± 0.12
KKRTSIEVSVKGDLETHFLKCPKPAAQEISSLADSLQLEKEVVRVWFCNRRQKEKR	-0.518 ± 0.43
KKRTSIEVSVKGTLETHFLKCPKPAAQEISSLADSLQLEKEVVRVWFCNRRQKEKR	-0.502 ± 0.42
KKRTSIEVSVKGCLETHFLKCPKPAAQEISSLADSLQLEKEVVRVWFCNRRQKEKR	-0.454 ± 0.3
KKRTSIEVSVKGVLETHFLKCPKPAAQEISSLADSLQLEFEVVRVWFCNRRQKEKR	0.195 ± 0.17
KKRTSIEVSVKGVLETHFLKCPKPAAQEISSLADSLQLEREVVRVWFCNRRQKEKR	-0.071 ± 0.14
KKRTSIEVSVKGVLETHFLKCPKPAAQEISSLADSLQLESEVVRVWFCNRRQKEKR	-0.188 ± 0.14
KKRTSIEVSVKGVLETHFLKCPKPAAQEISSLADSLQLEPEVVRVWFCNRRQKEKR	0.348 ± 0.18
KKRTSIEVSVKGVLETHFLKCPKPAAQEISSLADSLQLEMEVVRVWFCNRRQKEKR	-0.269 ± 0.15
KKRTSIEVSVKGVLETHFLKCPKPAAQEISSLADSLQLEHEVVRVWFCNRRQKEKR	0.099 ± 0.22
KKRTSIEVSVKGVLETHFLKCPKPAAQEISSLADSLQLEKEVVRVWFCNRRQKEYR	-0.259 ± 0.24
KKRTSIEVSVKGVLETHFLKCPKPAAQEISSLADSLQLEKEVVRVWFCNRRQKEGR	-0.392 ± 0.13
KKRTEIEVSVKGVLETHFLKCPKPAAQEISSLADSLQLEKEVVRVWFCNRRQKEKR	0.565 ± 0.17
KKRTLIEVSVKGVLETHFLKCPKPAAQEISSLADSLQLEKEVVRVWFCNRRQKEKR	-0.045 ± 0.14
KKRTQIEVSVKGVLETHFLKCPKPAAQEISSLADSLQLEKEVVRVWFCNRRQKEKR	0.268 ± 0.18
KKRTPIEVSVKGVLETHFLKCPKPAAQEISSLADSLQLEKEVVRVWFCNRRQKEKR	-0.158 ± 0.19
KKRTSIEVSVKGVLETHFLKCPKPAAQEISSLADSLQLEKEVVRVWFRNRRQKEKR	0.056 ± 0.12
KKRTSIEVSVKGVLETHFLKCPKPAAQEISSLADSLQLEKEVVRVWFKNRRQKEKR	0.282 ± 0.24
KKRTSIEVSVKGVLETHFLKCPKPAAKEISSLADSLQLEKEVVRVWFCNRRQKEKR	-0.157 ± 0.17
KKRTSIEVSVKGVLETHFLKCPKPAAQEISSLADSLQLEKEVVRVWFCNRRQKAKR	-0.788 ± 0.2
KKRTSIEVSVKGVLETHFLKCPKPAAQEISSLADSLQLEKEVVRVWFCNRRQKTKR	-1.06 ± 0.4
KKRTSIEVSSKGVLETHFLKCPKPAAQEISSLADSLQLEKEVVRVWFCNRRQKEKR	-0.587 ± 0.21
KKRTSIEVSQKGVLETHFLKCPKPAAQEISSLADSLQLEKEVVRVWFCNRRQKEKR	-0.193 ± 0.23
KKRTSIEVSVKGVLETHFLKCPKPAAQEISSLADSLQLEKVVVRVWFCNRRQKEKR	-0.817 ± 0.2

Variant	abundance fitness
KKRTSIEVSVKGVLETHFLKCPKPAAQEISSLADSLQLEKKVVRVWFCNRRQKEKR	-0.602 ± 0.21
KKRTSIEVSVKGVLEQHFLKCPKPAAQEISSLADSLQLEKEVVRVWFCNRRQKEKR	0.044 ± 0.2
KKRTSIEVSVKGVLEVHFLKCPKPAAQEISSLADSLQLEKEVVRVWFCNRRQKEKR	-0.504 ± 0.13
KKRTSYEVSVKGVLETHFLKCPKPAAQEISSLADSLQLEKEVVRVWFCNRRQKEKR	-0.613 ± 0.12
KKRTSIEVSVKGVLETHELKCPKPAAQEISSLADSLQLEKEVVRVWFCNRRQKEKR	-0.851 ± 0.17
KKRTSIEVSVKGVLETHGLKCPKPAAQEISSLADSLQLEKEVVRVWFCNRRQKEKR	-0.741 ± 0.11
KKRTSIEVSVKGVLETHFLKCPKPAAQEISSLADSLQLEKEVSRVWFCNRRQKEKR	-0.852 ± 0.17
KKRTSIEVSVKGVLETHFLKCPKPAAQEISSLADSLQLEKEVYRVWFCNRRQKEKR	-0.545 ± 0.23
KKRTSIEVSVKGVLETHFLKCPPPAAQEISSLADSLQLEKEVVRVWFCNRRQKEKR	-0.697 ± 0.27
KKRTSIEVSVKGVLETHFLKCPTPAAQEISSLADSLQLEKEVVRVWFCNRRQKEKR	0.237 ± 0.15
KKRTSIEVSVKGVLETHFLKCGKPAAQEISSLADSLQLEKEVVRVWFCNRRQKEKR	-0.909 ± 0.19
KKRTSIEVSVKGVLETHFLKCMKPAAQEISSLADSLQLEKEVVRVWFCNRRQKEKR	-0.553 ± 0.21
KKRTSIEVSVKGVLETHFLKCIKPAAQEISSLADSLQLEKEVVRVWFCNRRQKEKR	-0.606 ± 0.28
KKKTSIEVSVKGVLETHFLKCPKPAAQEISSLADSLQLEKEVVRVWFCNRRQKEKR	0.03 ± 0.33
KKITSIEVSVKGVLETHFLKCPKPAAQEISSLADSLQLEKEVVRVWFCNRRQKEKR	0.104 ± 0.17
KKLTSIEVSVKGVLETHFLKCPKPAAQEISSLADSLQLEKEVVRVWFCNRRQKEKR	0.306 ± 0.12
GKRTSIEVSVKGVLETHFLKCPKPAAQEISSLADSLQLEKEVVRVWFCNRRQKEKR	-0.243 ± 0.4
KKRTSIEVSVKGVLETHFLKCPKPAAQEISSLADSLQLEKEVVRVRFCNRRQKEKR	-0.927 ± 0.16
KKRTSIEVSVKGVLETHFLKCPKPAAQEISSLADSLQLEKEVVRVWFCNRRQTEKR	-0.428 ± 0.2
KKRTSIEVSVKGVLETHFLKCPKPAAQEISSLADSLQLEKEVVRVWFCNRRQWEKR	-0.888 ± 0.33
KKRTSIEVSVKGVLETHFLKCPKPAAQDISSLADSLQLEKEVVRVWFCNRRQKEKR	-0.3 ± 0.18
KKRTSIEVSVKGVLETHFLKCPKPAAQEISSLADILQLEKEVVRVWFCNRRQKEKR	-0.373 ± 0.15
KKRTSIEVSVKGVLETHFLKCPKPAAQEISSLADELQLEKEVVRVWFCNRRQKEKR	0.115 ± 0.17
KKRTSIEVSVKGVLETHFLKCPKPAAQEISSLMDSLQLEKEVVRVWFCNRRQKEKR	-0.836 ± 0.38

Variant	abundance fitness
KKRTSIEVSVKGVLETHFLKCPKPAAQEISSLGDSLQLEKEVVRVWFCNRRQKEKR	-0.853 ± 0.2
KRRTSIEVSVKGVLETHFLKCPKPAAQEISSLADSLQLEKEVVRVWFCNRRQKEKR	-0.225 ± 0.17
KVRTSIEVSVKGVLETHFLKCPKPAAQEISSLADSLQLEKEVVRVWFCNRRQKEKR	-0.124 ± 0.15
KCRTSIEVSVKGVLETHFLKCPKPAAQEISSLADSLQLEKEVVRVWFCNRRQKEKR	-0.8 ± 0.31
KKRTSIEVSVKGVLETHFLKCPKPAAQEISSLADSLQLEKEVVRVWFCNRRQKEKA	-0.085 ± 0.29
KKRTSIEVSVKGVLETHFLKCPKPAAQEISSLADSLQLEKEYVRVWFCNRRQKEKR	-0.396 ± 0.43
KKRTSIEVSVKGVLETHFLKCPKPAAQEISSLADSLQLEKENVRVWFCNRRQKEKR	-0.799 ± 0.41
KKRTSIEVSVKGVLETHFLKCPKPAAQEISSLADSLQLEKEVVRVWRCNRRQKEKR	-0.677 ± 0.17
KKRTSIEVSVKGVLETHFLKCPKPAAQEISSLADSLQLEKEVVRVWFCNRRLKEKR	-0.055 ± 0.13
KKRTSIEVSVKGVLETHFLKCPKPAAQEISSLADSLQLEKEVVRVWFCNRRTKEKR	-0.351 ± 0.22
KKRTSIEVSVKGVLETHFLKCPKPAAQEISSLADSLQLDKEVVRVWFCNRRQKEKR	0.122 ± 0.17
KKRTSIEVSVKGVLETHFLKCPKPAAQEISSLADSLQLSKEVVRVWFCNRRQKEKR	-0.074 ± 0.12
KKRTSIEVSVKGVLETHFLKCPKPAAQEISSLADSLQLEKEVVRVWFCSRRQKEKR	-0.308 ± 0.14
KKRTSIEVSVKGVLETHFLKCPKPAAQEISSLADSLQLEKEVVRVWFCKRRQKEKR	-0.119 ± 0.16
KKRTSIMVSVKGVLETHFLKCPKPAAQEISSLADSLQLEKEVVRVWFCNRRQKEKR	-0.191 ± 0.17
KKRTSIHVSVKGVLETHFLKCPKPAAQEISSLADSLQLEKEVVRVWFCNRRQKEKR	0.105 ± 0.089
KKRTSIDVSVKGVLETHFLKCPKPAAQEISSLADSLQLEKEVVRVWFCNRRQKEKR	0.327 ± 0.14
KKRTSITVSVKGVLETHFLKCPKPAAQEISSLADSLQLEKEVVRVWFCNRRQKEKR	0.526 ± 0.087
KKRTSIEVSVKGVLETHFLKCPKPAAQEISSLADSLQLEKEVVRMWFCNRRQKEKR	-0.041 ± 0.26
KKRTSIEVSVKGVLETHFLKCPKPAAQEISSLADSLQLEKEVVRTWFCNRRQKEKR	0.307 ± 0.15
KKRTSIEVSVKGVLETHFLKCPKPAAQEISSLADSLQLEKEVVAVWFCNRRQKEKR	-0.193 ± 0.13
KKRTSIEVSVKGVLETHFLKCPKPAAQEISSLADSLQLEKEVVTVWFCNRRQKEKR	-0.343 ± 0.16
